Values of other authors in patent US20200069786A1, “COMPOSITION AND PROCESS FOR PREPARING VACCINE” (TREOS BIO ZRT., priority 2018, published 2020).
Like-named read-outs stand apart in the source and are kept apart here.

B1: MAGE-A6 (protein, UniProt P43360 1-314, looked up)
Melanoma-associated antigen 6: MPLEQRSQHCKPEEGLEARGEALGLVGAQAPATEEQEAASSSSTLVEVTLGEVPAAESPDPPQSPQGASSLPTTMNYPLWSQSYEDSSNQEEEGPSTFPDLESEFQAALSRKVAKLVHFLLLKYRAREPVTKAEMLGSVVGNWQYFFPVIFSKASDSLQLVFGIELMEVDPIGHVYIFATCLGLSYDGLLGDNQIMPKTGFLIIILAIIAKEGDCAPEEKIWEELSVLEVFEGREDSIFGDPKKLLTQYFVQENYLEYRQVPGSDPACYEFLWGPRALIETSYVKVLHHMVKISGGPRISYPLLHEWALREGEE
B2: MAGE-A12 (protein, UniProt P43365 1-314, looked up)
Melanoma-associated antigen 12: MPLEQRSQHCKPEEGLEAQGEALGLVGAQAPATEEQETASSSSTLVEVTLREVPAAESPSPPHSPQGASTLPTTINYTLWSQSDEGSSNEEQEGPSTFPDLETSFQVALSRKMAELVHFLLLKYRAREPFTKAEMLGSVIRNFQDFFPVIFSKASEYLQLVFGIEVVEVVRIGHLYILVTCLGLSYDGLLGDNQIVPKTGLLIIVLAIIAKEGDCAPEEKIWEELSVLEASDGREDSVFAHPRKLLTQDLVQENYLEYRQVPGSDPACYEFLWGPRALVETSYVKVLHHLLKISGGPHISYPPLHEWAFREGEE
B3: CAGE1 (protein, UniProt Q8TC20 1-777, looked up)
Cancer-associated gene 1 …: MNKDYQKFWSSPSDPVHFEVDTSHEKVESMSESDTMNVSNLSQGVMLSHSPICMETTGTTCDLPQNEIKNFERENEYESTLCEDAYGTLDNLLNDNNIENYSTNALIQPVDTISISSLRQFETVCKFHWVEAFDDEMTEKPEFQSQVYNYAKDNNIKQDSFKEENPMETSVSANTDQLGNEYFRQPPPRSPPLIHCSGEMLKFTEKSLAKSIAKESALNPSQPPSFLCKTAVPSKEIQNYGEIPEMSVSYEKEVTAEGVERPEIVSTWSSAGISWRSEACRENCEMPDWEQSAESLQPVQEDMALNEVLQKLKHTNRKQEVRIQELQCSNLYLEKRVKELQMKITKQQVFIDVINKLKENVEELIEDKYKIILEKNDTKKTLQNLEEVLANTQKHLQESRNDKEMLQLQFKKIKANYVCLQERYMTEMQQKNKSVSQYLEMDKTLSKKEEEVERLQQLKKELEKATASALDLLKREKEAQEQEFLSLQEEFQKLEKENLEERQKLKSRLEKLLTQVRNLQFMSENERTKNIKLQQQINEVKNENAKLKQQVARSEEQNYVPKFETAQLKDQLEEVLKSDITKDTKTTHSNLLPDCSPCEERLNPADIKRASQLASKMHSLLALMVGLLTCQDIINSDAEHFKESEKVSDIMLQKLKSLHLKKKTLDKEVIDCDSDEAKSIRDVPTLLGAKLDKYHSLNEELDFLVTSYEEIIECADQRLAISHSQIAHLEERNKHLEDLIRKPREKARKPRSKSLENHPKSMTMMPALFKENRNDLD

Test system: TSA
[1] = TSA expression rate in BLADDER cancer
[2] = TSA expression rate in Esophageal
[3] = TSA expression rate in HEAD and NECK
[4] = TSA expression rate in MELANOMA
[5] = TSA expression rate in PEDIATRIC
[6] = TSA expression rate in PROSTATE cancer

Molecule | TSA Expression Rate (ER) (BREAST) | TSA Expression Rate (ER) (HCC) | TSA Expression Rate (ER) (LUNG) | Expression Rate (ER) % [1] | Expression Rate (ER) % (TSA expression rate in CRC) | Expression Rate (ER) % [2] | Expression Rate (ER) % [3] | Expression Rate (ER) % (TSA expression rate in Kidney) | Expression Rate (ER) % [4] | Expression Rate (ER) % [5] | Expression Rate (ER) % [6] | Expression Rate (ER) % (TSA expression rate in LEUKEMIAS) | Expression Rate (ER) % (TSA expression rate in Cervical cancer) | Expression Rate (ER) % (TSA expression rate in GASTRIC cancer) | Expression Rate (ER) % (TSA expression rate in LUNG cancer)
B1 | 15% | 36% | 51% | 25% | 22% | 68% | 58% | 0% | 65% | 80% | 23% | – | – | – | –
B2 | 12% | 36% | 31% | 29% | 6% | 26% | 34% | 4% | 49% | 41% | 5% | 21% | – | – | –
B3 | – | 39% | – | – | 74% | – | – | – | – | – | – | – | 98% | 77% | 14%
